According to patent publication US20090226437A1 (Genentech, published 2009):

B1: Rat Fib504 (antibody FIB504.64 produced by hybridoma ATCC HB-293) (antibody, V domains shown)
VH: EVQLQESGPGLVKPSQSLSLTCSVTGFFITNNYWGWIRKFPGNKMEWMGYISYSGSTSYNPSLKSRISITRDTSKNQFFLQLNSVTTEDTATYYCAMTGSSGYFDFWGPGTMVTVSS
VL: DVVMTQSPATLSVTPGERISLSCRASESVDTYLHWYQQKPNESPRLLIKYASQSISGIPSRFSGSGSGTDFTLSINGVELEDLSIYYCQQGNSLPNTFGAGTKLELKR
notes: Whole rat antibody in the cell adhesion assays; also called rat anti-mouse beta7 antibody
B2: Variant hu504.32, IgG (antibody, V domains shown)
VH: EVQLVESGGGLVQPGGSLRLSCAASGFFITNNYWGWVRQAPGKGLEWVGYISYSGSTSYNPSLKSRFTISRDTSKNTFYLQMNSLRAEDTAVYYCAMTGSSGYFDFWGQGTLVTVSS
VL: DIQMTQSPSSLSASVGDRVTITCRASESVDDLLHWYQQKPGKAPKLLIKYASQSISGVPSRFSGSGSGTDFTLTISSLQPEDFATYYCQQGNSLPNTFGQGTKVEIKR
notes: methionine at heavy chain position 94; also called hu504.32M; 504.32M
B3: Variant hu504.16, IgG (antibody, name in Kabat numbering, V domains shown)
VH: EVQLVESGGGLVQPGGSLRLSCAASGFFITNNYWGWVRQAPGKGLEWVGYISYSGSTSYNPSLKSRFTISRDTSKNTFYLQMNSLRAEDTAVYYCAMTGSSGYFDFWGQGTLVTVSS
VL: DIQMTQSPSSLSASVGDRVTITCRASESVDTLLHWYQQKPGKAPKLLIKYASQSISGVPSRFSGSGSGTDFTLTISSLQPEDFATYYCQQGNSLPNTFGQGTKVEIKR
B4: Variant hu504.5, IgG (antibody, name in Kabat numbering, V domains shown)
VH: EVQLVESGGGLVQPGGSLRLSCAASGFFITNNYWGWVRQAPGKGLEWVGYISYSGSTSYNPSLKSRFTISRDTSKNTFYLQMNSLRAEDTAVYYCAMTGSSGYFDFWGQGTLVTVSS
VL: DIQMTQSPSSLSASVGDRVTITCRASESVDSLLHWYQQKPGKAPKLLIKYASQSISGVPSRFSGSGSGTDFTLTISSLQPEDFATYYCQQGNSLPNTFGQGTKVEIKR

Legend:
[1] = molecular target: T1, human alpha4beta7 receptor on RPMI8866 cells (human, UniProt P13612 34-1032; P26010 20-798); assay: cell adhesion inhibition, RPMI8866 cells on coated 7dVCAM-1, Exp 1
T1 construct: whole, on cells; also called alpha4beta7 on RPMI8866
T1 sequence (P13612 34-1032, chain 1 of 2): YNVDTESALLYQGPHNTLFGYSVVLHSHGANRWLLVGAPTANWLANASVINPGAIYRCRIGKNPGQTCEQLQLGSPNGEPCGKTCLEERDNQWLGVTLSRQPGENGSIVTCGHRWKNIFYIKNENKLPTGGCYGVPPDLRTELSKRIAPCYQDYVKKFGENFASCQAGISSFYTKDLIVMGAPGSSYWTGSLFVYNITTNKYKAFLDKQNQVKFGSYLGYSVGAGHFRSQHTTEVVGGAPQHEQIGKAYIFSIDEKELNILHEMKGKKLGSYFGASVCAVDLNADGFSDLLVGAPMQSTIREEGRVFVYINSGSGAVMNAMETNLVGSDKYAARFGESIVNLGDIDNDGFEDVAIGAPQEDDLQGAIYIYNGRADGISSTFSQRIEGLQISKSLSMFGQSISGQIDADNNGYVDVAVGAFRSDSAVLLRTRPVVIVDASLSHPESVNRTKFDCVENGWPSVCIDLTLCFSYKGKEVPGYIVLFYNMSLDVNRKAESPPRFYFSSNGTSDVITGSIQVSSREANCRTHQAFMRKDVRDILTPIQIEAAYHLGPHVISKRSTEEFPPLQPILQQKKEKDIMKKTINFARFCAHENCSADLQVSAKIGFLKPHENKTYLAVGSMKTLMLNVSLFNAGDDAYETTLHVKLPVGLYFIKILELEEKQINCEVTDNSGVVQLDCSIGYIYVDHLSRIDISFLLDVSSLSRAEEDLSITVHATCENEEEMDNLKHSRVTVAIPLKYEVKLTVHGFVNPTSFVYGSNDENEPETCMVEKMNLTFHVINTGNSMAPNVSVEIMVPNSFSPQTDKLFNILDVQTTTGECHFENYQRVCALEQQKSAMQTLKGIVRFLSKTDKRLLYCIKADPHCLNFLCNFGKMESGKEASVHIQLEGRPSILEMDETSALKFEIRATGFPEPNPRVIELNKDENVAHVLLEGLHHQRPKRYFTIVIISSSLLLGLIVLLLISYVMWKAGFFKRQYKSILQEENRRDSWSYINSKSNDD
T1 sequence (P26010 20-798, chain 2 of 2): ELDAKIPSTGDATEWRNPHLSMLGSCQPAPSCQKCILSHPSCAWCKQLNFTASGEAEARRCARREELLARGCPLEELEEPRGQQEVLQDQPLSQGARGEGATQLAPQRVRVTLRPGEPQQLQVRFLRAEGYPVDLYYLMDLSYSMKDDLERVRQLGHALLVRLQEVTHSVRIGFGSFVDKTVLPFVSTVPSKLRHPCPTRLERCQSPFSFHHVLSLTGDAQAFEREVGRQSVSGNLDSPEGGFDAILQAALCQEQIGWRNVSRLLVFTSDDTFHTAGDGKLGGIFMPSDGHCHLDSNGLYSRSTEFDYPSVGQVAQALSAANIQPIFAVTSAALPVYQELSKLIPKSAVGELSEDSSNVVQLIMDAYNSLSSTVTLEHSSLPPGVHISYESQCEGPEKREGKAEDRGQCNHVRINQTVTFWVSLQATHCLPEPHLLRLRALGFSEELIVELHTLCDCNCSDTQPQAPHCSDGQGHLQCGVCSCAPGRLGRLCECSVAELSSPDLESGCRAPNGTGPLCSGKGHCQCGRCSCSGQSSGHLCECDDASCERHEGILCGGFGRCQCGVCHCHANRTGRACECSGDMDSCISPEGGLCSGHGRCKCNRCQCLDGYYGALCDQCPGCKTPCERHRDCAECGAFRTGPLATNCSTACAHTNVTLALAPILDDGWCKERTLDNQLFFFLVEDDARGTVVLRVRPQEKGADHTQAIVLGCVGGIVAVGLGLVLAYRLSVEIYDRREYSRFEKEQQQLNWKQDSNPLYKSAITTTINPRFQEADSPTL
Procedure: (§1) RPMI8866/MAdCAM-1-Ig Cell Adhesion: RPMI8866 cells express alpha4beta7 on their surface (Roswell Park Memorial Institute, Buffalo, N.Y.). Humanized Fib504 variants (hu504 variants) were contacted with a mixture of RMPI8866 cells and MAdCAM fused to IgG coated on a solid support. […] After blocking the plates with 200 ul/well of 5 mg/ml BSA for one hour at room temperature, 50 μl of humanized Fib504 variants in assay media (RPMI 1640 media, Hyclone®, Logan Utah, USA, supplemented with 5 mg/mL BSA) were added to each well and 150,000 BCECF-labeled cells (BCECF, Molecular Probes, Eugene, Oreg.) in 50 μl of assay media were added to each well and incubated for 15 minutes at 37° C. The wells were washed two times with 150 μl of assay media to remove unbound cells. The bound cells were solubilized with 100 μl of 0.1% SDS in 50 mM Tris/HCl pH7.5. The amount of fluorescence released from lysed cells was measured by SPECTRAmax GEMINI™ (Molecular Devices, Sunnyvale, Calif.) at 485 nm excitation 530 nm emission wavelengths. The fluorescence values were analyzed as a function of the concentrations of the humanized Fib504 variants added in each assay, using a four-parameter nonlinear least squares fit, to obtain the IC₅₀ values of each humanized Fib504 variant in the assay. IC₅₀ and IC₉₀ values were estimated from the four-parameter fit. FIG. 14 is an exemplary plot of the results. The IC₉₀ and IC₅₀ values for each of the variants tested are shown below in Table 4.
(§2) RPMI8866/7dVCAM-1 Cell Adhesion: The RPMI8866/7dVCAM-1 assay is similar format to the RPMI8866/MAdCAM-1-Ig except that 7dVCAM-1 (ADP5, R&D Systems, Minneapolis, Minn.) was used at 2 ug/ml to coat plates. The results were analyzed as described above for the MAdCAM binding experiments. The IC₅₀ values for each of the variants tested are shown below in Table 5.

[2] = molecular target: T1, human alpha4beta7 receptor on RPMI8866 …; assay: cell adhesion inhibition, RPMI8866 cells on coated MAdCAM-1-Ig, Exp 2
Procedure: as §1

[3] = molecular target: T1, human alpha4beta7 receptor on RPMI8866 …; assay: cell adhesion inhibition, RPMI8866 cells on coated 7dVCAM-1, Exp 2
Procedure: as §1, §2

[4] = molecular target: T2, alphaEbeta7 on alphaEbeta7-transfected 293 cells (human, UniProt P38570 19-1179; P26010 20-798); assay: cell adhesion inhibition, alphaEbeta7 293 cells on coated huE-Cadherin, experiment 3 of 3
T2 construct: whole, on cells; also called alphaEbeta7 293 cells
T2 sequence (P38570 19-1179, chain 1 of 2): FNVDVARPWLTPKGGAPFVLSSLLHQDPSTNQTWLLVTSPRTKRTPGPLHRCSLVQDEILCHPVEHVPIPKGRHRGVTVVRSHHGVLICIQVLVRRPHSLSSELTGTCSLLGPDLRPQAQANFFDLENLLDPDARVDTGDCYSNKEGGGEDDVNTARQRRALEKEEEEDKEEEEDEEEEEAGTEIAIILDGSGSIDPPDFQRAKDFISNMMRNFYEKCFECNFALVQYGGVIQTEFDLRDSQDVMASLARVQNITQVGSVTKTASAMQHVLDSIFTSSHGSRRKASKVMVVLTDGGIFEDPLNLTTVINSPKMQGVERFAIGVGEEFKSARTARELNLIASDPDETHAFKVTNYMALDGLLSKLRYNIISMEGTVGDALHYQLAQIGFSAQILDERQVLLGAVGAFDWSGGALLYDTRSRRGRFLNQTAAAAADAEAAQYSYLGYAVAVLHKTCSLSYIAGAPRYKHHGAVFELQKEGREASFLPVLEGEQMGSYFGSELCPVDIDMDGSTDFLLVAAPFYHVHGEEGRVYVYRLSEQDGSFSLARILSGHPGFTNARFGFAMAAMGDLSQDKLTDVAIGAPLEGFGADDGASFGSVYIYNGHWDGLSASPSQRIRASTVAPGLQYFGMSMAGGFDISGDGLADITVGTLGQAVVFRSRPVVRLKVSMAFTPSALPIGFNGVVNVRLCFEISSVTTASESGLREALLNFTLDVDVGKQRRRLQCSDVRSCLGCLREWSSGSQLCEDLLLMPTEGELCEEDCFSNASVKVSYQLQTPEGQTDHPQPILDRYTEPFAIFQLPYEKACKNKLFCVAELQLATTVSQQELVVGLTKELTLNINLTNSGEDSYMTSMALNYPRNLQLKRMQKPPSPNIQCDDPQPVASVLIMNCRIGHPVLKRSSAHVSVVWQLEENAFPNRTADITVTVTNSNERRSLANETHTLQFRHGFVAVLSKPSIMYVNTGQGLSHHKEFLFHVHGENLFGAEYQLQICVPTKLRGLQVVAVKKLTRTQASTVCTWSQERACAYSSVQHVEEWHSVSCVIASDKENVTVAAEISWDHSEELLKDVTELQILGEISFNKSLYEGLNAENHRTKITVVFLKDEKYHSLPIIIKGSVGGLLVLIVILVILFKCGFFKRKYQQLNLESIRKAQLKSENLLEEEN
T2 sequence (P26010 20-798, chain 2 of 2): as the sequence (P26010 20-798, chain 2 of 2) above
Procedure: (§3) After blocking the plates with 200 ul/well of 5 mg/ml BSA for one hour at room temperature, 50 μl of humanized Fib504 variants in assay media (RPMI 1640 media, Hyclone®, Logan Utah, USA, supplemented with 5 mg/mL BSA) were added to each well and 150,000 BCECF-labeled cells (BCECF, Molecular Probes, Eugene, Oreg.) in 50 μl of assay media were added to each well and incubated for 15 minutes at 37° C. The wells were washed two times with 150 μl of assay media to remove unbound cells. The bound cells were solubilized with 100 μl of 0.1% SDS in 50 mM Tris/HCl pH7.5. The amount of fluorescence released from lysed cells was measured by SPECTRAmax GEMINI™ (Molecular Devices, Sunnyvale, Calif.) at 485 nm excitation 530 nm emission wavelengths. The fluorescence values were analyzed as a function of the concentrations of the humanized Fib504 variants added in each assay, using a four-parameter nonlinear least squares fit, to obtain the IC₅₀ values of each humanized Fib504 variant in the assay. IC₅₀ and IC₉₀ values were estimated from the four-parameter fit. FIG. 14 is an exemplary plot of the results. The IC₉₀ and IC₅₀ values for each of the variants tested are shown below in Table 4.
(§4) The assay format is similar to the RPMI8866/MAdCAM-1-Ig assay except that the huE-Cadherin (648-EC, R&D Systems, Minneapolis, Minn.) was used at 2 μg/ml to coat the plates. Plates were then blocked with 5 mg/ml BSA as mentioned above and 50 μl of FIB504 variants in assay media (F-12:DMEM (50:50) supplemented with 5 mg/ml BSA) were add to each well and 110,000 BCECF labeled cells in 50 ul of assay media were added to each well and incubated for 15 minutes at 37° C. The wells were washed two times with 150 μl of assay media and the amount of fluorescence released by lysed cells was measured and analyzed as described above.

[5] = molecular target: T3, alpha4beta7 on 38C13 alpha4+ murine lymphoma cells transfected with integrin beta7 (38C13beta7 cells) (murine, UniProt Q00651 41-1039; P26011 20-806); assay: cell adhesion inhibition, 38C13beta7 cells on coated muVCAM-1-Ig, experiment 1 of 2
T3 construct: whole, on cells; also called 38C13-beta7 expressing cells; murine beta7-containing receptor
T3 sequence (Q00651 41-1039, chain 1 of 2): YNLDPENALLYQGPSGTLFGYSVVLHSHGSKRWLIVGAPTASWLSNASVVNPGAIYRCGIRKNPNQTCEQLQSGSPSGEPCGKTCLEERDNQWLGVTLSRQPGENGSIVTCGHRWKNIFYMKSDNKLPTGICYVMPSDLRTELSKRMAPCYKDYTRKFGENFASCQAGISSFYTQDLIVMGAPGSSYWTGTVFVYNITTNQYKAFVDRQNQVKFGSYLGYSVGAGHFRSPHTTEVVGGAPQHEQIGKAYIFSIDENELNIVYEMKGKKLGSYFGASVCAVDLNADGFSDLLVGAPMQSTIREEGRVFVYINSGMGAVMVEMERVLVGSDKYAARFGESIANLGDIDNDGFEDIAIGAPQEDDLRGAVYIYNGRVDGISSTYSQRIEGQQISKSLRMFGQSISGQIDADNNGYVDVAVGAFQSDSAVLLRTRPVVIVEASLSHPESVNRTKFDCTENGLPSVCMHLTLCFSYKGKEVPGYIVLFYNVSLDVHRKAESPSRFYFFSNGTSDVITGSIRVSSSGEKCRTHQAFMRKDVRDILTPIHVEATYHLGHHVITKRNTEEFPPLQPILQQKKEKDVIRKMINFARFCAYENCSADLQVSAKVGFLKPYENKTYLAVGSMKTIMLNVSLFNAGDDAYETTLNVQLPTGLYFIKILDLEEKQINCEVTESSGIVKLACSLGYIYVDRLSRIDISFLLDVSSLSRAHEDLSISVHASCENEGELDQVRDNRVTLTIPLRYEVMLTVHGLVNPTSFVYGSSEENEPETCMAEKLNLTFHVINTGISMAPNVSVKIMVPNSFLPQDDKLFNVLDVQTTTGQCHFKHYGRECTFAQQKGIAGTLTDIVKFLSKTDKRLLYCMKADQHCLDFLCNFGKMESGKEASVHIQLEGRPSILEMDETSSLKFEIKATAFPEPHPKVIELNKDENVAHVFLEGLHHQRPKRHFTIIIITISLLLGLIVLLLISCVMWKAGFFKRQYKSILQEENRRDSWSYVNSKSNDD
T3 sequence (P26011 20-806, chain 2 of 2): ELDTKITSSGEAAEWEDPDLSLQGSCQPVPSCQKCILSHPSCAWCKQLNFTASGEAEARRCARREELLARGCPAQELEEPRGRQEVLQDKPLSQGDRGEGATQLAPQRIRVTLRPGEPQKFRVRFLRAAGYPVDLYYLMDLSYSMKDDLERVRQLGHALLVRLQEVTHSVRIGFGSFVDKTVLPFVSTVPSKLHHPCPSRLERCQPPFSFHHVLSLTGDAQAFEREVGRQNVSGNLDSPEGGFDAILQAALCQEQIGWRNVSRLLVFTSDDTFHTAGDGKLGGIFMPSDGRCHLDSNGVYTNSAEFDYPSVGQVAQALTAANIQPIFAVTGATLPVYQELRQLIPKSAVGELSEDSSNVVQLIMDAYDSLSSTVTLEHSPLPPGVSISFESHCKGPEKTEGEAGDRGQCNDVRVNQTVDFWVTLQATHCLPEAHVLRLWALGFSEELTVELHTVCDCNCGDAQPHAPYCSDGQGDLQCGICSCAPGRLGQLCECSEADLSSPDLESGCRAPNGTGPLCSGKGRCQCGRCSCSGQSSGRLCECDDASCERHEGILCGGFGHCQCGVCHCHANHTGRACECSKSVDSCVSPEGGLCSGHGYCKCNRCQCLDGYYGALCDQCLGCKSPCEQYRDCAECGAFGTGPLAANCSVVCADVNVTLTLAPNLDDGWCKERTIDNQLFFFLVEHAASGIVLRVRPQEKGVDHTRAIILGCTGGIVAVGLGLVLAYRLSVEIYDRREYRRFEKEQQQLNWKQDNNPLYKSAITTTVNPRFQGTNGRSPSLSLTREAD
Procedure: as §1
(§5) 38C13beta7/muVCAM-1-Ig Cell Adhesion Assay: The 38C13beta7/muVCAM-1-Ig assay was performed according to the murine MAdCAM-1-Ig/RPMI8866 cell binding assay above, except that muVCAM-1-Ig (Genentech, Inc.) was used at 2 μg/ml to coat plates. (IC₅₀ and IC₉₀ values for 2 experiments are shown).

[6] = molecular target: T3, alpha4beta7 on 38C13 alpha4+ murine …; assay: cell adhesion inhibition, 38C13beta7 cells on coated muMAdCAM-1-Ig, experiment 2 of 2
Procedure: as §1
(§6) 38C13beta7/muMAdCAM-1-Ig Cell Adhesion Assay: The 38C13beta7/muMAdCAM-1-Ig assay was similar format to the RPMI8866/MAdCAM-1-Ig except that muMAdCAM-1-Ig (Genentech, Inc.) was used at 2 μg/ml to coat plates. 38C13 alpha4+ murine lymphoma cells (Crowe, D. T. et al., J. Biol. Chem. 269:14411-14418 (1994)) were transfected with DNA encoding integrin beta7 such that alpha4beta7 was expressed on the cell surface. The ability of the antibodies variants to disrupt interaction between the cell membrane associated alpha4beta7 and MAdCAM was performed as above.

[7] = molecular target: T3, alpha4beta7 on 38C13 alpha4+ murine …; assay: cell adhesion inhibition, 38C13beta7 cells on coated muVCAM-1-Ig, experiment 2 of 2
Procedure: as §1, §5

[8] = molecular target: T1, human alpha4beta7 receptor on RPMI8866 …; assay: cell adhesion inhibition, RPMI8866 cells on coated MAdCAM-1-Ig, Exp 1
Procedure: as §1

[9] = molecular target: T3, alpha4beta7 on 38C13 alpha4+ murine …; assay: cell adhesion inhibition, 38C13beta7 cells on coated muMAdCAM-1-Ig, experiment 1 of 2
Procedure: as §1, §6

[10] = molecular target: T2, alphaEbeta7 on alphaEbeta7-transfected …; assay: cell adhesion inhibition, alphaEbeta7 293 cells on coated huE-Cadherin, experiment 1 of 3
Procedure: as §3, §4

[11] = molecular target: T2, alphaEbeta7 on alphaEbeta7-transfected …; assay: cell adhesion inhibition, alphaEbeta7 293 cells on coated huE-Cadherin, experiment 2 of 3
Procedure: as §3, §4

Binder | IC50 [1] | IC90 [1] | IC50 [2] | IC90 [2] | IC50 [3] | IC90 [3] | IC50 [4] | IC90 [4] | IC50 [5] | IC90 [5] | IC50 [6] | IC90 [6] | IC50 [7] | IC90 [7] | IC50 [9] | IC90 [9] | IC50 [10] | IC90 [10] | IC50 [11] | IC90 [11] | other results
B1 | 0.107 nM | 0.396 nM | 0.197 nM | 0.703 nM | 0.193 nM | 0.58 nM | 4.19 nM | 9.95 nM | 0.845 nM | 2.9 nM | 0.306 nM | 1.51 nM | 0.447 nM | 2.3 nM | 0.682 nM | 2.87 nM | 2.05 nM | 8.8 nM | 7.89 nM | 24.5 nM | IC50 [8]: 0.098 nM; IC90 [8]: 0.483 nM
B2 |  |  |  |  |  |  | 3.47 nM | 11.7 nM | 0.562 nM | 2 nM | 0.458 nM | 1.51 nM | 0.33 nM | 1.84 nM | 0.718 nM | 4.08 nM | 1.81 nM | 8.8 nM | 6.99 nM | 24.5 nM | 
B3 | 0.098 nM | 0.261 nM | 0.206 nM | 0.551 nM | 0.223 nM | 0.774 nM | 4.58 nM | 13.5 nM | 0.835 nM | 2.86 nM | 0.61 nM | 4.08 nM | 0.584 nM | 1.84 nM | 0.998 nM | 3.72 nM | 1.96 nM | 7.03 nM | 10.1 nM | 33.7 nM | IC50 [8]: 0.0768 nM; IC90 [8]: 0.244 nM
B4 | 0.088 nM | 0.396 nM | 0.248 nM | 0.88 nM | 0.27 nM | 0.726 nM | 4.77 nM | 10.2 nM | 0.763 nM | 3.07 nM | 0.466 nM | 2.61 nM | 0.407 nM | 2.3 nM | 0.859 nM | 2.32 nM | 2.13 nM | 7.99 nM | 10.2 nM | 28.7 nM | IC50 [8]: 0.067 nM; IC90 [8]: 0.361 nM
